Laboratory results as given in US20060270591A1, “Androgen receptor coregulators” (priority 2002, published 2006).

Key:
Format in all cases: cell-based, human
[1] = system: AR; assay: AR transactivation assay, MMTV-CAT reporter, transient transfection (Example 1); conditions: for AR transcription activity with cotransfected coactivator: wild type AR
Method: Human prostate cancer DU145 or PC3 cells, or human lung carcinoma cells NCI H1299 were grown in Dulbecco's minimal essential medium (DMEM) containing penicillin (25 U/ml), streptomycin (25˜g/ml), and 5% fetal calf serum (FCS). One hour before transfection, the medium was changed to DMEM with 5% charcoal-stripped FCS. […] A β-galactosidase expression plasmid, pCMV-β-gal, was used as an internal control for transfection efficiency.
The medium was changed 24 hr posttransfection and the cells treated with either steroid hormones or hydroxyflutamide, and cultured for an additional 24 hr. Cells were harvested and assayed for CAT activity after the cell lysates were normalized by using β-galactosidaseas an internal control. Chloramphenicol acetyltransferase (CA) activity was visualized by PhosphorImager (Molecular Dynamics) and quantitated by ImageQuant software (Molecular Dynamics).

[2] = system: AR; assay: Mammalian two-hybrid CAT assay, interaction with AR in DU145 cells (Example 1)
Source text: 368. The mammalian two-hybrid system employed was essentially the protocol of Clontech (California), with the following modifications. In order to obtain better expression, the GAL4 DBD (a.a. 1-147) was fused to pSGS under the control of an SV40 promoter, and named pGALO.
369. The hinge and LBD of wtAR were then inserted into pGALO. Similarly, the VPI6 activation domain was fused to pCMX under the control of a CMV promoter, and designated pCMX-VP16 (provided by Dr. R. M. Evan).
Target sequence in this assay (P10275 669-900 limits assumed): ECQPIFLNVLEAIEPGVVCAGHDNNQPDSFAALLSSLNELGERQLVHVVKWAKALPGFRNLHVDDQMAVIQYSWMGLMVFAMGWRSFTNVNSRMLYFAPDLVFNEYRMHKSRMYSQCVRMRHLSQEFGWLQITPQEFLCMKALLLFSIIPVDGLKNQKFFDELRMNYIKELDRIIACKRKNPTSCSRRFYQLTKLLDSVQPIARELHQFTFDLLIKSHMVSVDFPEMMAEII

[3] = system: AR; assay: AR transactivation reporter assay (CAT/luciferase) (Example 3); conditions: for effect of ARA70N construct on AR transactivation: COS-1 cells, 10 nM T, MMTV-LUC
Method: 21. […] Further adding GAL-DBD (lane 1 and 2) or GAL-DBD-ARA70N with wild type (lane 3 and 4) or mutant (lane 5-8) FXXLF motifs to the cells. (B) Effect of wild type and mutant FXXLF motifs ARA70N on AR transactivation in COS-1 cells. […] 0.5 ng SV40-Renila Luciferase was used as an internal control. Relative luciferase activity was calculated by dual luciferase system.
411. Human prostate cancer DU145 and PC-3 cells were maintained in Dulbecco's Minimum Essential Medium (DMEM) containing penicillin (25 U/ml), streptomycin (25 μg/ml), and 5% fetal calf serum (FCS). Human LNCaP cells were maintained in RPMI containing penicillin (25 U/ml), streptomycin (25 μg/ml), and 10% FCS. Transfections were performed using the calcium phosphate precipitation method, as previously described (Dynlacht et al. (1991) Cell 66, 563-576). Briefly, 4×10^5 cells were plated on 60-mm dishes 24 hours before transfection, and the medium was changed to DMEM with 5% charcoal-dextran stripped FCS (CS-FBS) one hour before transfection. Transfection medium contained a constant amount of reporter plasmid and indicated amounts of pSG5-receptor, ARA70, or pCMX-GAL fusion construct using pSG5 as a carrier to provide equal amounts of transfected DNA. […] After another 24 hours, the cells were harvested for chloramphenicol transferase (CAT) or luciferase assays. At least three independent experiments were carried out in each case. Superfect (Qiagen) was used for transfection in LNCaP cells. The transfection conditions followed the manufacturer's protocol. Cell extracts were prepared and assayed for CAT or luciferase activity (Promega) and normalized against β-galactosidase or Renilla luciferase activity as indicated. All data were the mean±SD results from three to six independent experiments.
Target sequence in this assay (P10275 whole entry, the tested form may be a part): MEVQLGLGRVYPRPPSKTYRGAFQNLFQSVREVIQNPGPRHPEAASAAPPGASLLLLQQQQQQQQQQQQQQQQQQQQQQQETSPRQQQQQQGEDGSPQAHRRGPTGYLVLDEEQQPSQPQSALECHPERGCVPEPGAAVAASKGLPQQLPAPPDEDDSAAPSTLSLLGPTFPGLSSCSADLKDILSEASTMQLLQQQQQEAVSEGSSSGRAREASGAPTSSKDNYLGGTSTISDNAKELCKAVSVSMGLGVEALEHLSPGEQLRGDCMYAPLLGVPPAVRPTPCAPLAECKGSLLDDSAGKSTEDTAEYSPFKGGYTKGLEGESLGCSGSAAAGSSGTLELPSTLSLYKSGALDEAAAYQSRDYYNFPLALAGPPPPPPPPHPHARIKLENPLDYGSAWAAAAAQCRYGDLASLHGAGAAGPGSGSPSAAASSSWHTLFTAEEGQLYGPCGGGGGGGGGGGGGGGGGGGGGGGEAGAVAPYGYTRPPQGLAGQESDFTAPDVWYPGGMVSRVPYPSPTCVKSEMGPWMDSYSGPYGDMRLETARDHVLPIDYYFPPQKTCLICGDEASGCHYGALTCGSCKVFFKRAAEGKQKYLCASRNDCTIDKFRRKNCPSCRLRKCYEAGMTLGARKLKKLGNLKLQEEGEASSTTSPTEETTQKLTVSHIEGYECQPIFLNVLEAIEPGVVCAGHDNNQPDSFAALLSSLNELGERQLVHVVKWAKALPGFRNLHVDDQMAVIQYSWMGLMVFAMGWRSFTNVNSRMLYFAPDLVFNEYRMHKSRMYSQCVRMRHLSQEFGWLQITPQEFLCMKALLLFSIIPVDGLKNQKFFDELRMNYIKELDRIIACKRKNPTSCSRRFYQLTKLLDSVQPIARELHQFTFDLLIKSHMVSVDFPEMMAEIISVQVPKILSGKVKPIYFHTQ

[4] = system: PSA; assay: PSA northern and western blot in LNCaP cells (Example 3); conditions: 1 nM DHT
Source text: 20. […] (A) ARA70-N2 can serve as a dominant-negative to inhibit coregulator enhanced AR activity in DU145 cells. The pCMV-β-gal construct was used as an internal control, and the relative CAT activity was normalized by the β-gal activity. Data represent the mean±S.D. of four independent experiments. (B) ARA70-N2 can serve as a dominant-negative repressor to compete with the function of endogenous coregulators and inhibit AR transactivation in LNCaP cells. (C) ARA70-N2 can serve as a dominant-negative repressor to inhibit the expression of PSA mRNA in LNCaP cells. Human prostate cancer LNCaP cells were transfected with 4 and 8 μg of ARA70-N2 for 3 hours. […] The blot containing 20 μg total RNA in each lane was hybridized with a PSA specific cDNA probe. […] (D) ARA70-N2 can inhibit PSA protein expression in a dominant-negative manner. 4×10^6 LNCaP cells were plated on 100-mm dishes 24 hours before transfection. […] The blot containing 70 μg total cell lysate in each lane was hybridized with a PSA specific antibody. The same membrane was hybridized with a specific antibody for β-actin for equal protein loading.

B1: ARA55: AR coactivator, 444 aa polypeptide with high homology to mouse hic5 (protein)
chain: ANFNQSGNIADSSLSFTFTNSSNGPNLITTQTNSQALSQPIASSNVHDNFMNNEITASKIDDGNNSKPLSPGWTDQTAYNAFGITTGMFNTTTMDDVYNYLFDDEDTPPNPKKEMPRSGAPKERPAEPLTPPPSYGHQPTGQSGESSGASGDKDHLYSTVCKPRSPKPAAPAAPPFSSSSGVLGTGLCELDRLLQELNATQFNITDEIMSQFPSSKVASGEQKEDQSEDKKRPSLPSSPSPGLPKASATSATLELDRLMASLPDFRVQNHLPASGPTQPPVVSSTNEGSPSPPEPTAKGSLDTMLGLLQSDLSRRGVPTQAKGLCGSCNKPIAGQVVTALGRAWHPEHFVCGGCSTALGGSSFFEKDGAPFCPECYFERFSPRCGFCNQPIRHKMVTALGTHWHPEHFCCVSCGEPFGDEGFHEREGRPYCRRDFLQLFAPRCQGCQGPILDNYISALSLLWHPDCFVCRECFAPFSGGSFFEHEGRPLCENHFHARRGSLCPTCGLPVTGRCVSALGRRFHPDHFACTFCLRPLTKGSFQERAGKPYCQPCFLKLFG
enhancement of transactivation of wtAR, mARt877s and mARe708k ([1]; DHT 10^−11 to 10^−8 M, all three receptors): 4-8 fold | further increase of the DHT induction ([1]; DU145 cells, 10 nM DHT, AR:ARA55 up to 1:4.5): 5.3 fold | AR transcription activity with coactivator ([1]; DU145 cells, 10 nM DHT, with ARA55): 22.8 fold | increase of AR transcription activity upon transfection with exogenous ARA55 ([1]; PC3 cells): 4 fold

B2: ARA55251-444: C-terminus of ARA55 (a.a. 251-444 of SEQ ID NO:4) (protein)
chain: EKDGAPFCPECYFERFSPRCGFCNQPIRHKMVTALGTHWHPEHFCCVSCGEPFGDEGFHEREGRPYCRRDFLQLFAPRCQGCQGPILDNYISALSLLWHPDCFVCRECFAPFSGGSFFEHEGRPLCENHFHARRGSLCPTCGLPVTGRCVSALGRRFHPDHFACTFCLRPLTKGSFQERAGKPYCQPCFLKLFG
modifications: Homo sapien
effect on AR transcription activity ([1]; PC3 cells, endogenous ARA55, 10 nM DHT): dramatically reduced AR transcription activity

B3: Rb: retinoblastoma protein (protein, UniProt P06400 2-928, looked up)
Retinoblastoma-associated …: PPKTPRKTAATAAAAAAEPPAPPPPPPPEEDPEQDSGPEDLPLVRLEFEETEEPDFTALCQKLKIPDHVRERAWLTWEKVSSVDGVLGGYIQKKKELWGICIFIAAVDLDEMSFTFTELQKNIEISVHKFFNLLKEIDTSTKVDNAMSRLLKKYDVLFALFSKLERTCELIYLTQPSSSISTEINSALVLKVSWITFLLAKGEVLQMEDDLVISFQLMLCVLDYFIKLSPPMLLKEPYKTAVIPINGSPRTPRRGQNRSARIAKQLENDTRIIEVLCKEHECNIDEVKNVYFKNFIPFMNSLGLVTSNGLPEVENLSKRYEEIYLKNKDLDARLFLDHDKTLQTDSIDSFETQRTPRKSNLDEEVNVIPPHTPVRTVMNTIQQLMMILNSASDQPSENLISYFNNCTVNPKESILKRVKDIGYIFKEKFAKAVGQGCVEIGSQRYKLGVRLYYRVMESMLKSEEERLSIQNFSKLLNDNIFHMSLLACALEVVMATYSRSTSQNLDSGTDLSFPWILNVLNLKAFDFYKVIESFIKAEGNLTREMIKHLERCEHRIMESLAWLSDSPLFDLIKQSKDREGPTDHLESACPLNLPLQNNHTAADMYLSPVRSPKKKGSTTRVNSTANAETQATSAFQTQKPLKSTSLSLFYKKVYRLAYLRLNTLCERLLSEHPELEHIIWTLFQHTLQNEYELMRDRHLDQIMMCSMYGICKVKNIDLKFKIIVTAYKDLPHAVQETFKRVLIKEEEYDSIIVFYNSVFMQRLKTNILQYASTRPPTLSPIPHIPRSPYKFPSSPLRIPGGNIYISPLKSPYKISEGLPTPTKMTPRSRILVSIGESFGTSEKFQKINQMVCNSDRVLKRSAEGSNPPKPLKKLRFDIEGSDEADGSKHLPGESKFQQKLAEMTSTRTRMQKQKMNDSMDTSNKEEK
AR transcription activity with cotransfected coactivator ([1]; DU145 cells, 1 nM DHT): 21 fold | AR transcription activity with cotransfected coactivator ([1]; DU145 cells, 10 nM E2): 12 fold | induced CAT activity in mammalian two-hybrid assay [2]: 3 fold

B4: ARA70-N2: ARA70 region between amino acids 176-401, dominant-negative repressor (protein, UniProt Q13772 176-401, looked up, fragment)
chain: GPFLEKRGCISMPEQKSASGIVAVPFSEWLLGSKPASGYQAPYIPSTDPQDWLTQKQTLENSQTSSRACNFFNNVGGNLKGLENWLLKSEKSSYQKCNSHSTTSSFSIEMEKVGDQELPDQDEMDLSDWLVTPQESHKLRKPENGSRETSEKFKLLFQSYNVNDWLVKTDSCTNCQGNQPKGVEIENLGNLKCLNDHLEAKKPLSTPSMVTEDWLVQNHQDPCKVE
effect on ARA70N-enhanced AR transactivation ([3]; DU145 cells): inhibit ARA70N-enhanced AR transactivation | effect on PSA mRNA and protein expression [4]: repressed PSA mRNA

B5: pSG5-ARA70N-AXXLF: ARA70N with FXXLF motif mutated to AXXLF (protein)
chain: MNTFQDQSGSSSNREPLLRCSDARRDLELAIGGVLRAEQQIKDNLREVKAQIHSCISRHLECLRSREVWLYEQVDLIYQLKEETLQQQAQQLYSLLGQFNCLTHQLECTQNKDLANQVSVCLERLGSLTLKPEDSTVLLFEADTITLRQTITTFGSLKTIQIPEHLMAHASSANIGPFLEKRGCISMPEQKSASGIVAVPFSEWLLGSKPASGYQAPYIPSTDPQDWLTQKQTLENSQTSSRACNFFNNVGGNLKGLENWLLKSEKSSYQKCNSHSTTSSFSIEMEKVGDQELPDQDEMDLSDWLVTPQESHKLRKPENGSRETSEKFKLLFQSYNVNDWLVKTDSCTNCQGNQPKGVEIENLGNLKCLNDHLEAKKPLSTPSMVTEDWLVQNHQDPCKVE
effect of ARA70N construct on AR transactivation [3]: marginal induction effect

B6: pSG5-ARA70N-FXXAA: ARA70N with FXXLF motif mutated to FXXAA (protein)
chain: B5 chain
effect of ARA70N construct on AR transactivation [3]: marginal induction effect
